Assay results taken from patent US20150216972A1 (SAMSUNG ELECTRONICS, published 2015).

Tests used:
EGFR (R&D Systems) = target: T1, EGFR (R&D Systems) (UniProt P00533 25-645, limits assumed); test: SPR, Biacore T100
T1 construct: also called epidermal growth factor receptor

[1] = target: T2, human c-Met/Fc fusion protein (R&D Systems) (human, UniProt P08581 25-932); test: ELISA, human c-Met/Fc coated at 2 ug/mL, hybridoma culture supernatant
T2 construct: Bought reagent; also called human c-Met/Fc protein; not shown: Fc part of the bought fusion
T2 sequence (P08581 25-932 limits assumed): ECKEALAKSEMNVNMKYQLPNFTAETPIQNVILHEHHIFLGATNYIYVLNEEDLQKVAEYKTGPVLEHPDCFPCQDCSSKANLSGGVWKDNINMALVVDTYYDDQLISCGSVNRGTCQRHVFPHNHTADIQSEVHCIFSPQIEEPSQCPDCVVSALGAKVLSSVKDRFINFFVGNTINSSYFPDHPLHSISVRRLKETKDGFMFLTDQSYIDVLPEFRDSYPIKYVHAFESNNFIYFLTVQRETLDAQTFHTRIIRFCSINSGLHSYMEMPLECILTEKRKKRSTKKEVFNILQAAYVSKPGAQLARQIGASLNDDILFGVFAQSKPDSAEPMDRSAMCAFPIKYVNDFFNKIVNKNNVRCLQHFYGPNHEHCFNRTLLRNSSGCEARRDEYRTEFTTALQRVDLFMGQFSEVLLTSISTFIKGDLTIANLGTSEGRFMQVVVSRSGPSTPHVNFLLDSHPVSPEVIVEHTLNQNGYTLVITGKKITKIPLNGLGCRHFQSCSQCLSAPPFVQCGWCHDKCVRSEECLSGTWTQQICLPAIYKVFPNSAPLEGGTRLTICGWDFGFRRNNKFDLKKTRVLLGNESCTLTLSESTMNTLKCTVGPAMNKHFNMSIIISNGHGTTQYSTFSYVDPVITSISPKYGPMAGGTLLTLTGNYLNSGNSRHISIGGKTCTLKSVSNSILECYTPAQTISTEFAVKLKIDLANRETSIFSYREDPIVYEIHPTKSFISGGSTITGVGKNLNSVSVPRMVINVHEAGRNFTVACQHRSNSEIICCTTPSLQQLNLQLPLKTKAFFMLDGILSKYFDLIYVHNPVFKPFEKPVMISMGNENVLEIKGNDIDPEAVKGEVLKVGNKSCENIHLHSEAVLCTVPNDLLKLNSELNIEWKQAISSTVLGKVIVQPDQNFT
Procedure: Human c-Met/Fc fusion protein was seeded in an amount of 50 μL (2 μg/mL)/well to microtiter plates and allowed to adhere to the surface of each well. The antibody that remained unbound was removed by washing.
The hybridoma cell culture obtained in Reference Example 1.1.2 was added in an amount of 50 μL to each well of the plates and incubated for 1 hour. The cells remaining unreacted were washed out with a sufficient amount of Tris-buffered saline and Tween 20 (TBST). Goat anti-mouse IgG-horseradish peroxidase (HRP) was added to the plates and incubated for 1 hour at room temperature. The plates were washed with a sufficient amount of TBST, followed by reacting the peroxidase with a substrate (OPD). Absorbance at 450 nm was measured on an ELISA reader.

Binder | Kd (EGFR (R&D Systems)) [nM] | binding result [1]
ME-19, bispecific anti-c-Met/anti-EGFR antibody (anti-c-Met antibody L3-1Y / anti-EGFR DARPin conjugate) (bispecific antibody, human IgG2, kappa, also called c-Met/EGFR bsAb) heavy: EVQLVESGGGLVQPGGSLRLSCAASGFTFTDYYMSWVRQAPGKGLEWLGFIRNKANGYTTEYSASVKGRFTISRDNSKNTLYLQMNSLRAEDTAVYYCARDNWFAYWGQGTLVTVSSASTKGPSVFPLAPCSRSTSESTAALGCLVKDYFPEPVTVSWNSGALTSGVHTFPAVLQSSGLYSLSSVVTVPSSNFGTQTYTCNVDHKPSNTKVDKTVERKCCVECPPCPAPPVAGPSVFLFPPKPKDTLMISRTPEVTCVVVDVSHEDPEVQFNWYVDGVEVHNAKTKPREEQFNSTFRVVSVLTVVHQDWLNGKEYKCKVSNKGLPAPIEKTISKTKGQPREPQVYTLPPSREEMTKNQVSLTCLVKGFYPSDIAVEWESNGQPENNYKTTPPMLDSDGSFFLYSKLTVDKSRWQQGNVFSCSVMHEALHNHYTQKSLSLSPGKGGGGSGGGGSDLGKKLLEAARAGQDDEVRILMANGADVNADDTWGWTPLHLAAYQGHLEIVEVLLKNGADVNAYDYIGWTPLHLAADGHLEIVEVLLKNGADVNASDYIGDTPLHLAAHNGHLEIVEVLLKHGADVNAQDKFGKTAFDISIDNGNEDLAEILQ light: DIQMTQSPSSLSASVGDRVTITCKSSQSLLASGNQNNYLAWYQQKPGKAPKMLIIWASTRVSGVPSRFSGSGSGTDFTLTISSLQPEDFATYYCQQSYSRPYTFGQGTKVEIKRTVAAPSVFIFPPSDEQLKSGTASVVCLLNNFYPREAKVQWKVDNALQSGNSQESVTEQDSKDSTYSLSSTLTLSKADYEKHKVYACEVTHQGLSSPVTKSFNRGEC | ~0.35 | 
AbF46, mouse monoclonal antibody to c-Met (antibody, V domains shown, Screened as hybridoma culture supernatant; also called monoclonal antibody of hybridoma KCLRF-BP-00220) VH: EVKLVESGGGLVQPGGSLRLSCATSGFTFTDYYMSWVRQPPGKALEWLGFIRNKANGYTTEYSASVKGRFTISRDNSQSILYLQMDTLRAEDSATYYCARDNWFAYWGQGTLVTVSA VL: DILMTQSPSSLTVSAGEKVTMSCKSSQSLLASGNQNNYLAWHQQKPGRSPKMLIIWASTRVSGVPDRFIGSGSGTDFTLTINSVQAEDLAVYYCQQSYSAPLTFGAGTKLELK |  | binds
